The source of these data is the nanobody polyreactivity screen of Harvey et al. (2022).

The series is described as follows: yeast display, Sf9 membrane polyspecificity reagent, FACS + sequencing; frameworks hold sequencing errors. A digest of the protocol:
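Using colony PCR, genes from sorted yeast display clones were amplified, then sequenced on MiSeq at 2 × 250 and filtered by CDR length. The clones had been stained with 10% biotinylated, detergent-solubilized Sf9 membrane reagent for 1 hour at 4 °C and sorted by FACS into low and high (top ~1%) gates on anti-HA and streptavidin fluorescence. Polyreactivity labels come from the gate of origin.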
Take “QVQLVESGGGLVQAGGSLRLSCAASGRFFSNNAMGWYRPAPGKERELVAAIDSSGDSTNYADSVKGRFTISRDIAKNTVYLQMNSLKPEDTAVYYCNALQRGRRVWQYLYGYWGQGTQVNVSS”: the “polyreactivity (PSR sort gate)” value is “high polyreactivity”.
For “QVQLVESGGGLVQAGGSLRLSSAASGRTFTRYTMGWYRQAPGKERELVAAIRYSGGSTYYADSVKGRFTISRDNAKNTVYLQMNSLKPEDTAVYYCAARSYYYGFLYRYDYWGQGTQVTVSS”, the “polyreactivity (PSR sort gate)” value is reported as “low polyreactivity”.
Then “QVQLVESGGGLVQAGGSLRLSCAASGSILWVNAMGWYRQAPGKERELVAAITSGGDSTNYADSVKGRFTISRDNAKNTVYLQMNSLKPEDTAVYYCNAEFWLNEDLDYDTSYDYWGQGTQVTVSS”, with “low polyreactivity”.
Then “QVQLVESGGGLVQAGVSLRLTCAASGRIFRRYAMGWYRQAPGKEMEFVAAISYGGGSTYYADSVKGRFTISRDNAKNTVYLQMNSLKPEDTAVYYWNADEVVWGYNYWGQGTQVNVSS”, with “low polyreactivity”; and “QVQLVESGGGLVQAGGSLRLSCAASGFIFTYNDMGWYRQAPGKERELVASITWDGGRTYYADAVKGRCTISRDNAKNTVYLQMISLKPEDTADYYCAKRLGGSPIQARGDYWGQGTQVTVSS”, with “low polyreactivity”.
As to “QVQHVESGGGIVQAGGSLRLSCAASGSIFRNNTMGWYRQAPGKERELVAAISGRGTRTSYADSVKGRFTISRDNAKNTVYLQMNSLKPEDTAVYYCAARSWYLYYWGQGTQVTVSS”, the “polyreactivity (PSR sort gate)” value is given as “low polyreactivity”.
On to “QVQLVESGGGLVQAGGSLRLSCAASGSIFWYYAMGWSRQAPGKERELVASISSSGGSTYYADSVKGRFTISRDNAKNTVYLQMNSLKPEDTAVYYCAVRSPYRLSRWRVGYWGQGTQVTVSS”, for which the “polyreactivity (PSR sort gate)” value was “high polyreactivity”.
Regarding “QVQLVESGGGLVQAGGSLRLSCAASGSTFSYYAMGWYRQAPGKERELVAAITRGGSTYYADSVKGRFTISRDNAKNTVYLQMNSLKPEDTAVYYWAGQLLRYRYYYWGQGTQVNVSS”, the “polyreactivity (PSR sort gate)” value is “high polyreactivity”.
The value for “QVQLVESGGGLVQAVGSLRLSCAASGSIFPDNAMGWYRQAPRKERELVASISWSGGSTYYADSVKGRFTISRDNAKNPVYLQRNSLKPEDTAVYYCARTYYWYLRVDYWGQGTQVTVSS” was “low polyreactivity”.
Regarding “QVQLVESGGGLVQARGSHRISCAASGRTITFNAMGWYRQAPGKQRELVAGIDLSTTSTYYADSVKGRFTISRDNAKNTVYLQMNSLKPEDCAVYYCNAYRNADYDYWGQGTLVTVSS”, the “polyreactivity (PSR sort gate)” value is given as “low polyreactivity”.
The value for “QVQLVESGGGLVQAGGILRLSCAATGTTFSYYPMGWYRQAPGKERELVAAITNGGSTYYADSVKGRFTISRDNAKNTVYLQMNSLKPEDTAVYYCAADVSYWPYARYQRYPRYDYWGQGTQVTVSS” was “low polyreactivity”; that for “QVQLVESGGGLVQAGGSLRLSCAASGRIIGFNAMGWYIQAPAKERELVASIRTTGGSTRYADSVKWRFTISRDNATNTVYLQMNSLKPEDTAVYYCADRWCKTLWQYNYWGQGTQVTVSS” was “high polyreactivity”.
For “QVQLQESGGGLVQAGGSLRLSCAASGNIVDADIMGWYRQAPGKERELVASITDGGSTNYADSVKGRFTISRDNAKNTVYLQMNSLKPEDTAVYYCAAIAYPDIPTYFDYDSEYFYWGQGTQVTVSS”, the “polyreactivity (PSR sort gate)” value is reported as “low polyreactivity”.
Then “QVQLVESGGGLVQAGGSLRLSCAASGFTFWEYAMGWYRQAPGKERELVAAISRGTSTYYADSVKGRFTISRDNAKNTVYLQMNSLKPEDTAVYYCAAAPSYYPARHGYWGQGTQVTVSS”, with “low polyreactivity”; and “QVQLVESGGGLVQAGGSLRLSCAASGSTFDYYAMGWYRQAPGKERELVAAISRTGGRTYYADSVKGRFTISRDNAKNTVYLQMNSLKPEDTAVYYCATRNGRQYSVSYRYYYWGQGTQVTVSS”, with “low polyreactivity”; and “QVQLVESGGGLVQAGGSLRLSCAASGRIFDKYAMGWYRQAPGKERYLVAAIDWSGGSTYYADSVKGRFTISRDNAKNTVYLQMNRLKPEDNAVYYCAAYWYYEDGQSEARLYGYDYWGQGTQVTVSS”, with “low polyreactivity”.
Take “QVQHVESGGGLVQAGGILRLICPDSGFTIRHKAMGWYRQAPGKEREFVAAISWYDGSTYADSVKGRFTISRDNAKYTVYIQLNCLKPEDTAVYFCNADYPSYRYFTGRHYWGQGTQVTVSS”: the “polyreactivity (PSR sort gate)” value is “low polyreactivity”.
For “QVQLVESGGGLVQAGGSLRLSCAASGFTFAYYAMGWYRQAPGKERELVAAISSRGGSTYADSVKGRFTISRDNAKNTVYLQMNSLKPEDTAVYYCNAVVPRSRYFSWTYDYWGQGTQVTVSS”, the “polyreactivity (PSR sort gate)” value is “high polyreactivity”.
Then “QVQLVESGGGLVQAGGSLRLSCAASGITFVRNALGWYRQAPGKEREFVAAISWSGGSTYYADSVKGRFTISRDNAKNTVYLQMNSLKPEDTAVYYCNAGSSYLSRFPLDYWGQGTQVTVSS”, with “high polyreactivity”; and “QVQLVESGGGVVQAGGSLRLSCAASGSTLSYYAMGLYIQAPGTERELVAAITSGVSTNYADSVKGRFTISRDNAKNTVYFQMNSLKPEDTAVYYCAKAYGGYHDDYDYWGQVTQVTVSS”, with “low polyreactivity”; and “QVQLVESGGGLVQAGGRLRLSCAASGRIFLGYTMGSYRQAPWKERELVAAISKSGDSTYYADAVKGRFTFSSDNAKYTVFLQMNSLKPEDTAVYYCATRGYQSLRHQGTDDYWGQGTQVTVSS”, with “high polyreactivity”.
In the case of “QVQLVESGGGLVQAGGSLRISSAASGRIFVTNAMRWYRQAPGKERELLAAITRGGNTNYADSVKGRFTISRDNAKNTVYLQMNSLKPEDTAVYYCAADTSYDSVYGYFPGYYYWGQGTQVTVSS”, the “polyreactivity (PSR sort gate)” value is “low polyreactivity”.
In the case of “QLQREESGGGLVQAGGSLRLSCAASGRTFTRYAMGWYRQAPVKERELVAAISGGGGSTYYADSVKGRFTISRDNAKITVYLQINSLKPEDTAVYYCNAAARVYSFDYWGQGTQVTVSS”, the “polyreactivity (PSR sort gate)” value is recorded as “low polyreactivity”.
On to “QVHLVESGGGLVQAGGTLRLSCAASGLFARNAMGWYRQAPGKERELVAAINRSGGSTYYADSVKGRFTISRDNAKNTVYLQMNSLKPEDTAVYYCNKAFTHTKDRSPIAYEYGYWGQGTQVTVSS”, for which the “polyreactivity (PSR sort gate)” value is “low polyreactivity”.
Then “QVQLVESGGGLVQAGGILRLSCAASGSTFGYYTMGWYRQAPGKEREFVAAITRRGGSTYYADSVKGRFTISRDNAKNTVYLQMNSLKPEDTAVYYCAAESRYQPHYGYWGQGTQVTVSS”, with “high polyreactivity”; and “QVQLVESGGGLVQAGGSLRLSCAASGSTFWVNARGWYRQAPGKERELVAAIRRGGSTKYADSVKGRFTISRDNAKTTVYLQMNSLKPEDTAVYYCAADSYRTPAIYDYWGQGTQVTVSS”, with “high polyreactivity”; and “PVQLVDSGGGLVQAGGSLRLSCAASGRTFGWYAMGWYRQAPGKERELVAAIRGVRTHYADSVKGRFTISRDNAKNTVYLQMNSLKPEDTAVYYCAARYYRWTKSEYGYWGQGTQVTVSS”, with “high polyreactivity”.
Regarding “QVQLVESGGGLVQAGGSLRLSCAASGSTFTSYAMGWYRQAPGKERELVAAISRSGGRTYYADSVKGRFTISRDNAKYTVYLQMNSLKPEDTAVYYCNAASLSKSDYWGQGTQVTVSS”, the “polyreactivity (PSR sort gate)” value is listed as “high polyreactivity”.
The value for “QDQIVESGGGLVQAGGSLRLSCAASGSIFVIKAMGWYRQAPGKERELVASIRGRTGSTNYADSVKGRFTISRDNAKNTVYLQMNSLKPVDTAVYYGAADRKGPFDYWGLGTQVTVSS” was “high polyreactivity”; that for “QVQLVESGGGLVQAGGSLRLSCAASGRIFRGYVMGWYRQAPGKERELVAAISSSGGSTYYADSVKGRFTISRDNAKNTVYLQMNSLKPEDTAVYYCAAAKWFFYGRKYGKYDYWGQGTQVTVSS” was “high polyreactivity”.
